Assay results from patent US20140135474A1 (PROTELICA, published 2014).
Numbering of substitutions follows the chain as printed.

T1: HMGB1 (UniProt P09429 1-215, limits assumed)
T1 construct: also called biotinylated HMGB1
T1 sequence (looked up): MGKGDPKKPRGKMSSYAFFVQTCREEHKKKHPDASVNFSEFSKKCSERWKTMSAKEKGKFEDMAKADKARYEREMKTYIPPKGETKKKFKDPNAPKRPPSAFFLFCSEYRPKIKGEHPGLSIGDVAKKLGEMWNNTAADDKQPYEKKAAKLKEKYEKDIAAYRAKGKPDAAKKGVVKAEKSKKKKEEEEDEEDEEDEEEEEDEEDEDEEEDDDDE

T2: VEGF (UniProt P15692-9 27-147, limits assumed)
T2 construct: Only the selection names the 121 isoform; also called VEGF(121)
T2 sequence (looked up): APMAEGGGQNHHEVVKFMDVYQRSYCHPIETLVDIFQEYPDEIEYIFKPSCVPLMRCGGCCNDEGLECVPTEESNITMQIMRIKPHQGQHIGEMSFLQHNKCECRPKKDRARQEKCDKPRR

B1: P1E8 anti-HMGB1 (designed binder)
chain: NVSPPRRARVTDATETTITISWRAAESAIARFQVDAVPANGQTPIQRTIKRTKHTYTITGLQPGTDYKIYLYTLNDNARSSPVVIDAST
notes: 14FN3 variant; on phage in phage ELISA, soluble 6xHis-tagged in Octet
B2: P2C6 anti-HMGB1 (designed binder)
chain: B1 chain with S21R, R23G, A24V, E26P, A28Q, I29V, A30I, T52S, K53V, T55A
notes: as for B1
B3: R2B5 anti-HMGB1 (designed binder)
chain: B1 chain with S21R, R23T, A24V, A28K, T52S, T55S
notes: as for B1
B4: R2D4 anti-HMGB1 (designed binder)
chain: B1 chain with R23G, A24V, A28E, I29V, A30T, T52S, T55A
notes: as for B1
B5: R2E6 anti-HMGB1 (designed binder)
chain: B1 chain with S21R, R23G, A24V, E26Q, A28Q, I29V, T52S, K53V
notes: as for B1
B6: R2F8 anti-HMGB1 (designed binder)
chain: B1 chain with S21R, R23A, A24R, A25S, E26A, A28E, T52S, K53A, H54N, T55I
notes: 14FN3 variant; also called R2F8 HMGB1 FN3
B7: R2G2 anti-HMGB1 (designed binder)
chain: B1 chain
notes: as for B1
B8: P2F3 anti-HMGB1 (designed binder)
chain: NVSPPRRARVTDATETTITIRWGVPHSFQVDAVPANGQTPIQRTIKRGVRSYTITGLQPGTDYKIYLYTLNDNARSSPVVIDAST
notes: as for B1
B9: TNF-α binder R41A6 (designed binder)
chain: NVSPPRRARVTDATETTITISWEHSEDDCYSYIYYFQVDAVPANGQTPIQRTISGYETYYTITGLQPGTDYKIYLYTLNSAGFCPPYSKPVVIDAST
notes: 14FN3 variant; On phage (p3 fusion) in phage ELISA; soluble with 6xHis tag (phagemid also c-myc tag; pET-20b C-terminal hexahistidine) in ELISA and Octet
B10: TNF-α binder R42C10 (designed binder)
chain: NVSPPRRARVTDATETTITISWYHHEDDCYYHFYYFQVDAVPANGQTPIQRTILHGTYTSYTITGLQPGTDYKIYLYTLNASGFCSHSYKPVVIDAST
notes: 14FN3 variant; on phage in phage ELISA, soluble 6xHis-tagged in ELISA; The short label C10 is tied to R42C10 by its name only
B11: TNF-α binder R4C5 (designed binder)
chain: NVSPPRRARVTDATETTITISWNSSYCHFYGFQVDAVPANGQTPIQRTISDYEYSYTITGLQPGTDYKIYLYTLNASCYGYHYYKPVVIDAST
notes: 14FN3 variant; on phage in phage ELISA, soluble 6xHis-tagged in ELISA; The short label C5 is tied to R4C5 by its name only
B12: A6+Fc (Fc fusion)
chain: B9 chain
notes: Expressed in E. coli BL-21(DE3); also called R41A6 Fc fusion protein; pET-20b+TNF A6+Fc #39; not shown: C-terminal hexahistidine tag of pET-20b
B13: TNF-α binder R3A10 (designed binder)
chain: NVSPPRRARVTDATETTITISWYPYYYYCGYHYSYFQVDAVPANGQTPIQRTIYGYYTYYTITGLQPGTDYKIYLYTLNSSDYCYYSYYPVVIDAST
B14: TNF-α binder R4A8 (designed binder)
chain: B9 chain with E23Y, H24P, D28Y, Y30G, Y32S, Y35G, S54H, Y56N, Y59S
B15: TNF-α binder R4G4 (designed binder)
chain: B9 chain with H24P, D27Y, S31Y, Y32S, S54H, G55D, Y56S, E57Y, T58N
B16: TNF-α binder R4F7 (designed binder)
chain: NVSPPRRARVTDATETTITISWYPYEYDDCYYYIYYFQVDAVPANGQTPIQRTIPDYESYYTITGLQPGTDYKIYLYTLNSYGFCPPSYKPVVIDAST
B17: TNF-α binder R4E9 (designed binder)
chain: NVSPPRRARVTDATETTITISWESYYYDCCYYIYYFQVDAVPANGQTPIQRTIYYPYTSYTITGLQPGTDYKIYLYTLNSYGYGYHYYKPVVIDAST
B18: TNF-α binder A4A9 (designed binder)
chain: NVSPPRRARVTDATETTITISWYPYYDDCGYYISYFQVDAVPANGQTPIQRTIPDSYSSYTITGLQPGTDYKIYLYTLNDADDGHPYSKPVVIDAST
B19: R1 D4 anti-VEGF (designed binder)
chain: NVSPPRRARVTDATETTITIPWEVAGGPIISFQVDAVPANGQTPIQRTITPDATGYTITGLQPGTDYKIYLYTLNDNARSSPVVIDAST
notes: 14FN3 variant; on phage in phage ELISA, soluble His-tagged protein in Octet
B20: R1 F1 anti-VEGF (designed binder)
chain: B19 chain with E23A, V24L, A53I, T54R
B21: R1G1 anti-VEGF (designed binder)
chain: NVSPPRRARVTDATETTITIRWAGSPGPVDSFQVDAVPANGQTPIQRTIQTSETGYTITGLQPGTDYKIYLYTLNDNARSSPVVIDAST

What follows are binders tested against T1, HMGB1 (assay: Octet BLI).
Work on B1 yielded a Kd of 0.192 µM, a koff of 0.000325 s⁻¹ and a kon of 1690 M⁻¹ s⁻¹. B2 gave a Kd of 0.104 µM, a koff of 0.000991 s⁻¹ and a kon of 9540 M⁻¹ s⁻¹. Work on B3 yielded a Kd of 0.0658 µM, a koff of 0.000287 s⁻¹ and a kon of 4350 M⁻¹ s⁻¹. Work on B4 yielded a Kd of 0.159 µM, a koff of 0.000206 s⁻¹ and a kon of 1300 M⁻¹ s⁻¹. B5 was tested, and the Kd was 0.189 µM, the koff was 0.000955 s⁻¹ and the kon was 5040 M⁻¹ s⁻¹. B6 showed a Kd of 0.0353 µM, a koff of 0.000267 s⁻¹ and a kon of 7580 M⁻¹ s⁻¹. For B7, the Kd was 0.266 µM, the koff was 0.00049 s⁻¹ and the kon was 1840 M⁻¹ s⁻¹. For B8, the koff was 0.000271 s⁻¹.

These binders were tested against T2, VEGF (assay: ELISA with purified soluble 14FN3 variant, OD450, one concentration (not given)).
B9: no binding. B10: no binding. B11: no binding.

What follows are binders tested against T3, TNF-α (UniProt P01375 77-233, biotinylated) (assay: Octet BLI, biotinylated TNF-α on streptavidin tips).
T3 construct: also called TNF-alpha; biotintylated TNF-α soluble protein
T3 sequence (P01375 77-233 limits assumed): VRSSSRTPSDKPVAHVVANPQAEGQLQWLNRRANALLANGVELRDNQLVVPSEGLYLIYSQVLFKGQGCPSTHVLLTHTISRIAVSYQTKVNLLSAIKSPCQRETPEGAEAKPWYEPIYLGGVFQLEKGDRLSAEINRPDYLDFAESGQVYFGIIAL
Experimental: (§1) The target protein was biotintylated TNF-α soluble protein (R&D Systems) and is at a concentration of 0.25 ug/ml for loading onto the streptavidin sensor tips. […] The Octet was run using the manufacturers protocol for Basic Kinetic Assay.
B12 was tested, and the Kd was 0.012 to 0.025 µM and the “fold improvement of Koff against monomeric A6” value was 2 fold.

Each binder was assayed against T2, VEGF (assay: phage ELISA).
B13: no binding.

Each binder was assayed against T1, HMGB1 (assay: competition ELISA: biotinylated HMGB1 pre-incubated with R2F8, then bound to immobilized RAGE (blocked ligand-receptor pair HMGB1/RAGE), detected with streptavidin-HRP and TMB).
For B6, the “IC50 (read off the curve)” value was ~8 mg/L.

What follows are binders tested against T3, TNF-α (assay: phage ELISA; wells with TNF, control or VEGF).
Experimental: (§2) After the third and fourth rounds of selection, a total of 373 clones were analyzed for TNF-α binding using phage ELISA. Briefly, phage from individual clones was produced by co-infection with M13K07 helper phage in 1 ml cultures in 96-deep well blocks. Phage-containing culture supernatants were then added to microtiter plates coated with the target protein. Following washes with PBS-0.1% Tween-20, bound phage was detected with a mouse anti-M13 antibody horseradish peroxidase conjugate (GE Biosciences) and TMB substrate (Pierce). Positive variants were then screened for binding specificity against VEG-F and nuetravidin plate only.
B14: binds. B15: binds. B16: binds. B17: binds. B18: binds.

What follows are binders tested against T2, VEGF (assay: phage ELISA; wells with TNF, control or VEGF).
Experimental: as §2
B14: no binding. B15: no binding. B16: no binding. B17: no binding. B18: no binding.

These binders were tested against T3, TNF-α (assay: phage ELISA (OD450); wells with VEGF, TNF alfa or 2%MPBS only).
B19: no binding. B20: no binding. B21: no binding.

What follows are binders tested against T3, TNF-α (assay: Octet BLI, biotinylated TNF-α on streptavidin tips; lower end of the range).
Experimental: as §1
B9 was tested, and the Kd was ≥ 0.02 µM.

Each binder was assayed against T3, TNF-α (assay: phage display selection and ELISA).
B13: binds.

Each binder was assayed against T3, TNF-α (assay: Octet BLI, biotinylated TNF-α on streptavidin tips; upper end of the range).
Experimental: as §1
B9 was tested, and the Kd was ≤ 0.1 µM.

Each binder was assayed against T2, VEGF (assay: Octet BLI, soluble protein).
B19 showed a koff of 0.00017 s⁻¹.

These binders were tested against T3, TNF-α (assay: ELISA (OD450); wells with HMGB1, TNF or blank).
B4: no binding. B5: no binding. B7: no binding.
